Consider 2 proteins from doi:10.1101/2020.11.04.368837 (bioRxiv, 2020).

The data set “native gel or EMSA” deals with the molecule itself. The data set can be described thus: native gel or EMSA.
The data set “AUC” deals with the molecule itself. In words: AUC.
Data set [1] concerns the molecule itself. The data set can be described thus: single-particle cryo-EM, 2D class averages.

B1: recombinant human TRAP1 (mitochondrial Hsp90), wild type (natural protein, UniProt Q12931 60-704, looked up)
chain: STQTAEDKEEPLHSIISSTESVQGSTSKHEFQAETKKLLDIVARSLYSEKEVFIRELISNASDALEKLRHKLVSDGQALPEMEIHLQTNAEKGTITIQDTGIGMTQEELVSNLGTIARSGSKAFLDALQNQAEASSKIIGQFGVGFYSAFMVADRVEVYSRSAAPGSLGYQWLSDGSGVFEIAEASGVRTGTKIIIHLKSDCKEFSSEARVRDVVTKYSNFVSFPLYLNGRRMNTLQAIWMMDPKDVREWQHEEFYRYVAQAHDKPRYTLHYKTDAPLNIRSIFYVPDMKPSMFDVSRELGSSVALYSRKVLIQTKATDILPKWLRFIRGVVDSEDIPLNLSRELLQESALIRKLRDVLQQRLIKFFIDQSKKDAEKYAKFFEDYGLFMREGIVTATEQEVKEDIAKLLRYESSALPSGQLTSLSEYASRMRAGTRNIYYLCAPNRHLAEHSPYYEAMKKKDTEVLFCFEQFDELTLLHLREFDKKKLISVETDIVVDHYKEEKFEDRSPAAECLSEKETEELMAWMRNVLGSRVTNVKVTLRLDTHPAMVTVLEMGAARHFLRMQQLAKTQEERAQLLQPTLEINPRHALIKKLNQLRASEPGLAQLLVDQIYENAMIAAGLVDDPRAMVGRLNELLVKALERH
B1: the “stoichiometry N” value in “native gel or EMSA” came out at 4. For the same protein, in the data set “AUC”, the “ratio between dimer and tetramer population” value was 7 dimer:tetramer (7:1).

B2: TRAP1 fused with SpyCatcher at the C-terminus (TRAP1_(SpyCatcher)) (natural protein, human, UniProt Q12931 60-704, looked up)
chain: STQTAEDKEEPLHSIISSTESVQGSTSKHEFQAETKKLLDIVARSLYSEKEVFIRELISNASDALEKLRHKLVSDGQALPEMEIHLQTNAEKGTITIQDTGIGMTQEELVSNLGTIARSGSKAFLDALQNQAEASSKIIGQFGVGFYSAFMVADRVEVYSRSAAPGSLGYQWLSDGSGVFEIAEASGVRTGTKIIIHLKSDCKEFSSEARVRDVVTKYSNFVSFPLYLNGRRMNTLQAIWMMDPKDVREWQHEEFYRYVAQAHDKPRYTLHYKTDAPLNIRSIFYVPDMKPSMFDVSRELGSSVALYSRKVLIQTKATDILPKWLRFIRGVVDSEDIPLNLSRELLQESALIRKLRDVLQQRLIKFFIDQSKKDAEKYAKFFEDYGLFMREGIVTATEQEVKEDIAKLLRYESSALPSGQLTSLSEYASRMRAGTRNIYYLCAPNRHLAEHSPYYEAMKKKDTEVLFCFEQFDELTLLHLREFDKKKLISVETDIVVDHYKEEKFEDRSPAAECLSEKETEELMAWMRNVLGSRVTNVKVTLRLDTHPAMVTVLEMGAARHFLRMQQLAKTQEERAQLLQPTLEINPRHALIKKLNQLRASEPGLAQLLVDQIYENAMIAAGLVDDPRAMVGRLNELLVKALERH
Consider B2, for which the “stoichiometry N” value in data set [1] worked out at 4.
